# Measurements from patent publication US20080154022A1.
# Target: bFGF receptor on BHK-21 (baby hamster kidney derived) cells (hamster)
# Assay: displacement of [^125I]-bFGF from BHK-21 cells, radioreceptor assay, IC50 read from the graph
row,IC50 [nM],Substance
1,0.12,Recombinant human basic fibroblast growth factor (bFGF) (from UniProt P09038 143-288) (ligand)
2,0.56,Complex of bio-bFGF and the OX26/streptavidin conjugate (from UniProt P09038 143-288; P22629 37-163)
3,0.4,Biotinylated bFGF (monobiotinylated recombinant human bFGF) (from UniProt P09038 143-288) (ligand)
